Results: the supplement of paper PMC10126150
± gives the standard deviation of the averaged measurements.

System: ATP
Assay: switch fluorescence ratio, 500 uM ATP over buffer (Cy3 cluster intensity, sum of 5 cycles each) (fold (ratio)); higher = stronger signal-on switching upon ATP binding; sequences stand for … in TCGTCGGCAGCGTCAGATGTGTATAAGAGACAGTTTTTTTTTTTTTTTTTTTTTTTTT…TC
Settings: aptamer strand: ATP DNA aptamer (quencher-CACCTGGGGGAGTATTGCGGAGGAAGG + anchor), 100 nM annealed; ATP concentration: 500 uM
Outline: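 Cy3-labelled switching-strand clusters on a modified Illumina MiSeq flow-cell were annealed to 100 nM quencher-labelled ATP aptamer and imaged first in selection buffer, then after 15 min with 500 uM ATP at 22 °C. NaOH stripping and re-annealing separated each of five buffer/ATP cycles, and clusters outside 100-1000 RFU were excluded. The fluorescence ratio sums target-cycle Cy3 intensity over buffer-cycle Cy3 intensity per cluster and averages it per switch-domain sequence.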
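Also: ATP exposure 15 min at 22 °C before imaging.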

GTTTGTCCGA and GTTTGTGC are within error of each other in switch fluorescence ratio: 1.01 ± 0.012 for the first, 0.998 ± 0.059 for the second.

GTTTGTGTCC and GTTTGTTTAG are within error of each other in switch fluorescence ratio: 0.965 ± 0.079 for the first, 1.011 ± 0.006 for the second.

GTTTGTTTGT and GTTTTACACG are within error of each other in switch fluorescence ratio: 0.995 ± 0.019 for the first, 0.954 ± 0.031 for the second.

GTTTTAGAGT and GTTTTATATG are within error of each other in switch fluorescence ratio: 0.989 ± 0.02 for the first, 0.978 ± 0.011 for the second.

First: GTTTTATTAG
Second: GTTTTCACTC
The switch fluorescence ratio of the first is lower: 0.951 ± 0.032 for the first, 1.0086 ± 0.00085 for the second.

GTTTTCCCTT and GTTTTCTATA are within error of each other in switch fluorescence ratio: 0.982 ± 0.016 for the first, 0.975 ± 0.039 for the second.

GTTTTGCCTG and GTTTTGGAGC are within error of each other in switch fluorescence ratio: 0.998 ± 0.0045 for the first, 1.03 ± 0.067 for the second.

GTTTTGGGAA and GTTTTGGTAG are within error of each other in switch fluorescence ratio: 1.02 ± 0.026 for the first, 1.001 ± 0.0067 for the second.

GTTTTGTATT and GTTTTGTTGT are within error of each other in switch fluorescence ratio: 1 ± 0.029 for the first, 0.99 ± 0.027 for the second.

First: GTTTTTAATT
Second: GTTTTTACCT
The switch fluorescence ratio of the first is lower: 0.95322 ± 0.0005 for the first, 1.21 ± 0.19 for the second.

Going from GTTTTTAGGG to GTTTTTATGT, the switch fluorescence ratio falls from 1.02 ± 0.021 to 0.973 ± 0.014.

GTTTTTCAGG and GTTTTTGAGT are within error of each other in switch fluorescence ratio: 1 ± 0.017 for the first, 1.016 ± 0.0031 for the second.

GTTTTTGCTG and GTTTTTGGCG are within error of each other in switch fluorescence ratio: 0.976 ± 0.024 for the first, 0.94 ± 0.16 for the second.

GTTTTTTGCG and GTTTTTTGGA are within error of each other in switch fluorescence ratio: 0.999 ± 0.036 for the first, 1.01 ± 0.018 for the second.

GTTTTTTGGC and GTTTTTTTGT are within error of each other in switch fluorescence ratio: 0.97 ± 0.058 for the first, 0.966 ± 0.001 for the second.

GTTTTTTTTC and TAAAAAAAAG are within error of each other in switch fluorescence ratio: 0.985 ± 0.011 for the first, 1.01 ± 0.039 for the second.

TAAAAAAATA and TAAAAAATAT are within error of each other in switch fluorescence ratio: 0.971 ± 0.0079 for the first, 0.967 ± 0.043 for the second.

TAAAAAATTT and TAAAAATATA are within error of each other in switch fluorescence ratio: 1.02 ± 0.035 for the first, 1 ± 0.034 for the second.

Going from TAAAACTAAA to TAAAAGGAAA, the switch fluorescence ratio falls from 0.9977 ± 0.0012 to 0.9773 ± 0.0045.

Going from TAAAAGGCAA to TAAAAGGGGA, the switch fluorescence ratio falls from 1.14 ± 0.085 to 0.982 ± 0.029.

Compared with TAAAAGTCCG, TAAAAGTGAG is lower in switch fluorescence ratio: 1.06 ± 0.022 for the first, 1 ± 0.022 for the second.

TAAAAGTGTT and TAAAAGTTGG are within error of each other in switch fluorescence ratio: 1.07 ± 0.059 for the first, 0.985 ± 0.029 for the second.

TAAAATAGTT and TAAAATCCGT are within error of each other in switch fluorescence ratio: 0.972 ± 0.026 for the first, 0.981 ± 0.011 for the second.

TAAAATCGGG and TAAAATGAGG are within error of each other in switch fluorescence ratio: 0.958 ± 0.023 for the first, 0.987 ± 0.043 for the second.

TAAAATGCCG and TAAAATTGAA are within error of each other in switch fluorescence ratio: 1.01 ± 0.061 for the first, 0.9905 ± 0.0041 for the second.

TAAAATTGGG and TAAACAATTA are within error of each other in switch fluorescence ratio: 0.989 ± 0.014 for the first, 0.9734 ± 0.0095 for the second.

Compared with TAAACCCACT, TAAACGGGAC is lower in switch fluorescence ratio: 1.24 ± 0.063 for the first, 1.11 ± 0.019 for the second.

TAAACTCCTT and TAAACTGACG are within error of each other in switch fluorescence ratio: 1.05 ± 0.035 for the first, 1.03 ± 0.051 for the second.

First: TAAACTGCGG
Second: TAAACTGGGA
The switch fluorescence ratio of the first is higher: 1.03 ± 0.02 for the first, 1.004 ± 0.0093 for the second.

TAAAGAACGT and TAAAGATAGC are within error of each other in switch fluorescence ratio: 0.942 ± 0.015 for the first, 1.02 ± 0.064 for the second.

TAAAGATGAG and TAAAGCGGTG are within error of each other in switch fluorescence ratio: 1.0091 ± 0.00022 for the first, 0.992 ± 0.027 for the second.

TAAAGCTTTT and TAAAGGCGAG are within error of each other in switch fluorescence ratio: 1.09 ± 0.16 for the first, 1.02 ± 0.027 for the second.

TAAAGGCTTG and TAAAGGGCAC are within error of each other in switch fluorescence ratio: 0.976 ± 0.034 for the first, 1.011 ± 0.0093 for the second.

First: TAAAGGTATG
Second: TAAAGGTTGG
The switch fluorescence ratio of the first is higher: 1.02 ± 0.013 for the first, 0.962 ± 0.025 for the second.

TAAAGTAGTC and TAAAGTATTT are within error of each other in switch fluorescence ratio: 1.05 ± 0.044 for the first, 1.04 ± 0.073 for the second.

TAAAGTTAGA and TAAAGTTAGC are within error of each other in switch fluorescence ratio: 0.989 ± 0.012 for the first, 0.995 ± 0.028 for the second.

First: TAAAGTTCAG
Second: TAAAGTTTTT
The switch fluorescence ratio of the first is lower: 0.9685 ± 0.0073 for the first, 1.002 ± 0.0088 for the second.

TAAATAGGGC and TAAATATTT are within error of each other in switch fluorescence ratio: 1.02 ± 0.045 for the first, 0.996 ± 0.025 for the second.

TAAATCACGG and TAAATCCGGT are within error of each other in switch fluorescence ratio: 1.02 ± 0.038 for the first, 0.997 ± 0.041 for the second.

First: TAAATCCTA
Second: TAAATCGTTG
The switch fluorescence ratio of the first is higher: 1.02 ± 0.022 for the first, 0.9906 ± 0.005 for the second.

TAAATGGACG and TAAATGGGGA are within error of each other in switch fluorescence ratio: 0.9669 ± 0.0095 for the first, 0.995 ± 0.025 for the second.

TAAATTGGCG and TAAATTGGTT are within error of each other in switch fluorescence ratio: 0.987 ± 0.037 for the first, 0.981 ± 0.0078 for the second.

TAAATTTGAA and TAAATTTGGG are within error of each other in switch fluorescence ratio: 0.976 ± 0.0034 for the first, 0.974 ± 0.017 for the second.

Going from TAAATTTTTT to TAACAACGTA, the switch fluorescence ratio rises from 0.996 ± 0.032 to 1.066 ± 0.0064.

Compared with TAACAGATTT, TAACAGTAGG is higher in switch fluorescence ratio: 0.958 ± 0.0034 for the first, 1.05 ± 0.038 for the second.

TAACATCGGT and TAACATGTGG are within error of each other in switch fluorescence ratio: 0.996 ± 0.021 for the first, 1.017 ± 0.01 for the second.

First: TAACCCTGAA
Second: TAACCGGATT
The switch fluorescence ratio of the first is lower: 0.984 ± 0.015 for the first, 1.1 ± 0.053 for the second.

TAACGAAACT and TAACGAGTCT are within error of each other in switch fluorescence ratio: 1.26 ± 0.28 for the first, 1.01 ± 0.029 for the second.

TAACGCAGCT and TAACGGAGT are within error of each other in switch fluorescence ratio: 1.07 ± 0.073 for the first, 1.01 ± 0.015 for the second.

TAACGGCTGC and TAACGGGGCA are within error of each other in switch fluorescence ratio: 1 ± 0.051 for the first, 0.9842 ± 0.003 for the second.

TAACGGGTGG and TAACGTTTTG are within error of each other in switch fluorescence ratio: 1.01 ± 0.037 for the first, 0.989 ± 0.025 for the second.

Compared with TAACTATTTT, TAACTCACTA is higher in switch fluorescence ratio: 1.01 ± 0.016 for the first, 1.15 ± 0.017 for the second.

First: TAACTGTTTT
Second: TAACTTTTCG
The switch fluorescence ratio of the first is higher: 1.06 ± 0.056 for the first, 1.004 ± 0.0028 for the second.

TAAGAAAATT and TAAGACAAAG are within error of each other in switch fluorescence ratio: 0.993 ± 0.023 for the first, 0.992 ± 0.053 for the second.

TAAGACGGTT and TAAGAGGTTT are within error of each other in switch fluorescence ratio: 1.01 ± 0.015 for the first, 0.995 ± 0.01 for the second.

First: TAAGAGTACA
Second: TAAGAGTGCT
The switch fluorescence ratio of the first is higher: 1.07 ± 0.011 for the first, 0.9726 ± 0.0043 for the second.

TAAGAGTTC and TAAGCAGACG are within error of each other in switch fluorescence ratio: 0.99 ± 0.034 for the first, 0.9687 ± 0.0061 for the second.

TAAGCAGTTA and TAAGCCCACG are within error of each other in switch fluorescence ratio: 1.08 ± 0.12 for the first, 1.09 ± 0.023 for the second.

TAAGCGGCGG and TAAGCGGGGG are within error of each other in switch fluorescence ratio: 1 ± 0.036 for the first, 0.999 ± 0.017 for the second.

TAAGCTCTGT and TAAGCTGACG are within error of each other in switch fluorescence ratio: 0.984 ± 0.021 for the first, 0.9973 ± 0.0098 for the second.

Compared with TAAGCTTATG, TAAGGAAGTT is higher in switch fluorescence ratio: 0.9852 ± 0.0033 for the first, 1.009 ± 0.0096 for the second.

TAAGGACGAC and TAAGGACGGC are within error of each other in switch fluorescence ratio: 1.02 ± 0.026 for the first, 1.06 ± 0.035 for the second.

TAAGGAGTAA and TAAGGAGTGC are within error of each other in switch fluorescence ratio: 1.034 ± 0.01 for the first, 0.955 ± 0.12 for the second.

TAAGGATTAT and TAAGGCATAG are within error of each other in switch fluorescence ratio: 1.008 ± 0.0024 for the first, 1.04 ± 0.044 for the second.

TAAGGCGAAC and TAAGGCGGTG are within error of each other in switch fluorescence ratio: 1.03 ± 0.015 for the first, 1.04 ± 0.061 for the second.

Compared with TAAGGCGTAG, TAAGGCGTTA is lower in switch fluorescence ratio: 1.08 ± 0.061 for the first, 0.985 ± 0.031 for the second.

First: TAAGGCTCCC
Second: TAAGGGAATT
The switch fluorescence ratio of the first is higher: 1.063 ± 0.0044 for the first, 1 ± 0.036 for the second.

TAAGGGGATG and TAAGGGGCAA are within error of each other in switch fluorescence ratio: 0.99 ± 0.011 for the first, 1.01 ± 0.018 for the second.

TAAGGGGCGG and TAAGGGGGGT are within error of each other in switch fluorescence ratio: 0.989 ± 0.04 for the first, 1.02 ± 0.034 for the second.

TAAGGGGGTG and TAAGGGTGTA are within error of each other in switch fluorescence ratio: 1.01 ± 0.023 for the first, 0.9934 ± 0.004 for the second.

TAAGGGTTAC and TAAGGTAGGT are within error of each other in switch fluorescence ratio: 0.996 ± 0.03 for the first, 0.993 ± 0.016 for the second.

First: TAAGGTTGAC
Second: TAAGGTTGTA
The switch fluorescence ratio of the first is higher: 0.9953 ± 0.0035 for the first, 0.9705 ± 0.0047 for the second.

First: TAAGTAAAAT
Second: TAAGTACGTG
The switch fluorescence ratio of the first is lower: 0.9968 ± 0.0089 for the first, 1.18 ± 0.035 for the second.

TAAGTAGATT and TAAGTATCGC are within error of each other in switch fluorescence ratio: 0.995 ± 0.018 for the first, 1.03 ± 0.036 for the second.

TAAGTATTCG and TAAGTATTGT are within error of each other in switch fluorescence ratio: 0.9972 ± 0.0086 for the first, 1.012 ± 0.0084 for the second.

TAAGTCCACC and TAAGTCCCCA are the same in switch fluorescence ratio: 1.012 ± 0.01 for the first, 1.01 ± 0.052 for the second.

In the case of TAAGTCCTT, the switch fluorescence ratio is reported as 1.01 ± 0.048.
